Laboratory results taken from patent publication US5750106.

Biological target: gH glycoprotein of CMV (82,000 dalton component) (human cytomegalovirus (CMV), strain not stated)

B1: human monoclonal antibody SDZ MSL 109 (antibody, V domains shown)
VH: EEQVLESGGGLVKPGGSLRLSCAASGFTFSPYSVFWVRQAPGKGLEWVSSINSDSTYKYYADSVKGRFTISRDNAENSIFLQMNSLRAEDTAVYYCARDRSYYAFSSGSLSDYYYGLDVWGQG
VL: DIVMTQSPLSLSVTPGEPASISCRSSQSLLHTNGYNYLDWYVQKPGQSPQLLIYLASNRASGVPDRFSGSGSGTDFTLKISRVETEDVGVYYCMQALQIPRTFGQGTKVEIKR
- neutralizing concentration (micro-neutralization assay): 100 ng/mL
